Laboratory results published in US20130045895A1 (published 2013).
Substitutions are numbered along the chain they refer to. Names and notes keep the numbering of the source.

B1: DOM7h-11-15 A43D (other, name in Kabat numbering)
VL: DIQMTQSPSSLSASVGDRVTITCRASRPIGTMLSWYQQKPGKDPKLLILAFSRLQSGVPSRFSGSGSGTDFTLTISSLQPEDFATYYCAQAGTHPTTFGQGTKVEIKR
notes: also called A43D mutant of DOM7h-11-15
B2: DOM7h-14-10 (other)
VL: DIQMTQSPSSLSASVGDRVTITCRASQWIGSQLSWYQQKPGKAPKLLIMWRSSLQSGVPSRFSGSGSGTDFTLTISSLQPEDFATYYCAQGLRHPKTFGQGTKVEIKR
notes: also called DOM7h-14-10 parent
B3: DOM7h-14-10 A43D (other, name in Kabat numbering)
VL: B2 VL with A43D
notes: also called A43D mutant of DOM7h-14-10
B4: DOM7h-14 A43C (other)
VL: B2 VL with A43C, L92A, R93A, H94L, K96R
B5: DOM7h-14 Q38P (other)
VL: B2 VL with Q38P, L92A, R93A, H94L, K96R
B6: DOM7h-14 P44L (other)
VL: B2 VL with P44L, L92A, R93A, H94L, K96R
B7: DOM7h-14 P44M (other)
VL: B2 VL with P44M, L92A, R93A, H94L, K96R
B8: DOM7h-14 P44A (other)
VL: B2 VL with P44A, L92A, R93A, H94L, K96R
B9: DOM7h-14 P44S (other)
VL: B2 VL with P44S, L92A, R93A, H94L, K96R
B10: DOM7h-14 P44R (other)
VL: B2 VL with P44R, L92A, R93A, H94L, K96R
B11: DOM7h-14 P44G (other)
VL: B2 VL with P44G, L92A, R93A, H94L, K96R
B12: DOM7h-14 A43E (other)
VL: B2 VL with A43E, L92A, R93A, H94L, K96R
B13: DOM7h-14 Q38F (other)
VL: B2 VL with Q38F, L92A, R93A, H94L, K96R
B14: DOM7h-14 P44V (other)
VL: B2 VL with P44V, L92A, R93A, H94L, K96R
B15: DOM7h-14 Q38I (other)
VL: B2 VL with Q38I, L92A, R93A, H94L, K96R
B16: DOM7h-14 Q38T (other)
VL: B2 VL with Q38T, L92A, R93A, H94L, K96R
B17: DOM7h-14 Q38V (other)
VL: B2 VL with Q38V, L92A, R93A, H94L, K96R
B18: DOM7h-14 P44K (other)
VL: B2 VL with P44K, L92A, R93A, H94L, K96R
B19: DOM7h-14 Q38S (other)
VL: B2 VL with Q38S, L92A, R93A, H94L, K96R
B20: DOM7h-14 Q38Y (other)
VL: B2 VL with Q38Y, L92A, R93A, H94L, K96R
B21: DOM7h-14 Q38N (other)
VL: B2 VL with Q38N, L92A, R93A, H94L, K96R
B22: DOM7h-14 A43N (other)
VL: B2 VL with A43N, L92A, R93A, H94L, K96R
B23: DOM7h-14 P44E (other)
VL: B2 VL with P44E, L92A, R93A, H94L, K96R
B24: DOM7h-14 A43L (other)
VL: B2 VL with A43L, L92A, R93A, H94L, K96R
B25: DOM7h-14 Q38D (other)
VL: B2 VL with Q38D, L92A, R93A, H94L, K96R
B26: DOM7h-14 P44D (other)
VL: B2 VL with P44D, L92A, R93A, H94L, K96R
B27: DOM7h-14 Q38K (other)
VL: B2 VL with Q38K, L92A, R93A, H94L, K96R
B28: DOM7h-14 P44T (other)
VL: B2 VL with P44T, L92A, R93A, H94L, K96R
B29: DOM7h-14 Q38G (other)
VL: B2 VL with Q38G, L92A, R93A, H94L, K96R
B30: DOM7h-14 Q38C (other)
VL: B2 VL with Q38C, L92A, R93A, H94L, K96R
B31: DOM7h-14 Q38L (other)
VL: B2 VL with Q38L, L92A, R93A, H94L, K96R
B32: DOM7h-14 Q38M (other)
VL: B2 VL with Q38M, L92A, R93A, H94L, K96R
B33: DOM7h-14 A43K (other)
VL: B2 VL with A43K, L92A, R93A, H94L, K96R
B34: DOM7h-14 A43R (other)
VL: B2 VL with A43R, L92A, R93A, H94L, K96R
B35: DOM7h-14 A43H (other)
VL: B2 VL with A43H, L92A, R93A, H94L, K96R
B36: DOM7h-14 P44H (other)
VL: B2 VL with P44H, L92A, R93A, H94L, K96R
B37: DOM7h-14 A43I (other)
VL: B2 VL with A43I, L92A, R93A, H94L, K96R
B38: DOM7h-14 A43F (other)
VL: B2 VL with A43F, L92A, R93A, H94L, K96R
B39: DOM7h-14 P44N (other)
VL: B2 VL with P44N, L92A, R93A, H94L, K96R
B40: DOM7h-14 P44I (other)
VL: B2 VL with P44I, L92A, R93A, H94L, K96R
B41: DOM7h-14 Q38H (other)
VL: B2 VL with Q38H, L92A, R93A, H94L, K96R
B42: DOM7h-14 Q38W (other)
VL: B2 VL with Q38W, L92A, R93A, H94L, K96R
B43: DOM7h-14 A43V (other)
VL: B2 VL with A43V, L92A, R93A, H94L, K96R
B44: DOM7h-14 P44Q (other)
VL: B2 VL with P44Q, L92A, R93A, H94L, K96R
B45: DOM7h-14 A43T (other)
VL: B2 VL with A43T, L92A, R93A, H94L, K96R
B46: DOM7h-14 A43P (other)
VL: B2 VL with A43P, L92A, R93A, H94L, K96R
B47: DOM7h-14 A43M (other)
VL: B2 VL with A43M, L92A, R93A, H94L, K96R
B48: DOM7h-14 A43G (other)
VL: B2 VL with A43G, L92A, R93A, H94L, K96R
B49: DOM7h-14 P44C (other)
VL: B2 VL with P44C, L92A, R93A, H94L, K96R
B50: DOM7h-14 Q38R (other)
VL: B2 VL with Q38R, L92A, R93A, H94L, K96R
B51: DOM7h-14 P44W (other)
VL: B2 VL with P44W, L92A, R93A, H94L, K96R
B52: DOM7h-14 A43Y (other)
VL: B2 VL with A43Y, L92A, R93A, H94L, K96R
B53: DOM7h-14 A43S (other)
VL: B2 VL with A43S, L92A, R93A, H94L, K96R
B54: DOM7h-14 Q38E (other)
VL: B2 VL with Q38E, L92A, R93A, H94L, K96R
B55: DOM7h-14 Q38A (other)
VL: B2 VL with Q38A, L92A, R93A, H94L, K96R

Each binder was assayed against T1, Human Serum Albumin (human, UniProt P02768 25-609) (assay: SPR (Biacore 2000), purified dAb over HSA (559 RU) on CM5 chip).
T1 construct: also called HSA; antigen
T1 sequence (P02768 25-609 limits assumed): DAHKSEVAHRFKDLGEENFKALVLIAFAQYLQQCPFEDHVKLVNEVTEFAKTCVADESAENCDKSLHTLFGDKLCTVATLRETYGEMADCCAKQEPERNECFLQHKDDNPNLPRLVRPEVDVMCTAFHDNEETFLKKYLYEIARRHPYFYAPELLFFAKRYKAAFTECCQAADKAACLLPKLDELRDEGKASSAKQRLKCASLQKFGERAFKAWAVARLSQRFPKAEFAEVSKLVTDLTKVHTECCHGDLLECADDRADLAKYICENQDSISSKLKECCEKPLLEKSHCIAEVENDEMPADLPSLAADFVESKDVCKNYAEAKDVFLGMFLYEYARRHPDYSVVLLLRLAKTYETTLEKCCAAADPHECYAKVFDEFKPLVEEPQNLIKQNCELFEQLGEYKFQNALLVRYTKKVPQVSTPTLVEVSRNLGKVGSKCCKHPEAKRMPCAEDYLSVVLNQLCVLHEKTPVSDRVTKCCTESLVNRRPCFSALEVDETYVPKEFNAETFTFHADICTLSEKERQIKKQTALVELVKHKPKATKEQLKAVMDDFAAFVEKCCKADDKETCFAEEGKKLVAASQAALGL
From the text: (§1) The data analysis followed routine and established algorithms using the instrument's software (Bia-evaluation 3.2 RC1).

Question: Which Kd does the source give for B1 here?
Answer: Its Kd is 7000 nM.

Question: What about the koff of the same binder?
Answer: The koff was 0.0047 s⁻¹.

Question: And the kon?
Answer: The kon was 664 M⁻¹ s⁻¹.

Question: B2 was tested. Which Kd did it give?
Answer: The Kd was 26 nM.

Question: What about the koff of the same binder?
Answer: Its koff is 0.017 s⁻¹.

Question: What about the kon of the same binder?
Answer: Its kon is 670000 M⁻¹ s⁻¹.

Question: For B3, which Kd is on record?
Answer: Its Kd is 11.7 nM.

Question: What about the koff of the same binder?
Answer: The koff was 0.012 s⁻¹.

Question: And the kon?
Answer: Its kon is 990000 M⁻¹ s⁻¹.

The binders below were run against T1, Human Serum Albumin (assay: BIAcore, supernatant over immobilised HSA (6036 RU);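 also: expressed culture supernatants of mutant clones diluted 1:1 in HBS-EP buffer and screened for binding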).
Method: Screening of expressed supernatants for Protein L and HSA binding: Mutant clones were picked into a 96 well plate format and expressed in 1 mL 2×TY 0.1 mg/ml carbenicillin supplemented with OnEx solutions 1, 2 and 3 according to the manufacturer's instructions (Novagen). Cultures were grown at 30° C. for 3 days at 950 rpm high humidity in an InforsHT shaker. Cells were pelleted by centrifugation (4.5 k in a bench top Sorvall centrifuge for 30 mins) and 75 μL of the supernatant added to an equal volume of HBS-EP buffer (GE Healthcare).

Question: Does B4 bind?
Answer: Result: binds

Question: Does B5 bind?
Answer: Result: binds

Question: Does B6 bind?
Answer: Result: binds

Question: Does B7 bind?
Answer: Result: binds

Question: Does B8 bind?
Answer: Result: binds

Question: Does B9 bind?
Answer: Result: binds

Question: Does B10 bind?
Answer: Result: binds

Question: Does B11 bind?
Answer: Result: binds

Question: Does B12 bind?
Answer: Result: binds

Question: Does B13 bind?
Answer: Result: binds

Question: Does B14 bind?
Answer: Result: binds

Question: Does B15 bind?
Answer: Result: binds

Question: Does B16 bind?
Answer: Result: binds

Question: Does B17 bind?
Answer: Result: binds

Question: Does B18 bind?
Answer: Result: binds

Question: Does B19 bind?
Answer: Result: binds

Question: Does B20 bind?
Answer: Result: binds

Question: Does B21 bind?
Answer: Result: binds

Question: Does B22 bind?
Answer: Result: binds

Question: Does B23 bind?
Answer: Result: binds

Question: Does B24 bind?
Answer: Result: binds

Question: Does B25 bind?
Answer: Result: binds

Question: Does B26 bind?
Answer: Result: binds

Question: Does B27 bind?
Answer: Result: binds

Question: Does B28 bind?
Answer: Result: binds

Question: Does B29 bind?
Answer: Result: binds

Question: Does B30 bind?
Answer: Result: binds

Question: Does B31 bind?
Answer: Result: binds

Question: Does B32 bind?
Answer: Result: binds

Question: Does B33 bind?
Answer: Result: binds

Question: Does B34 bind?
Answer: Result: binds

Question: Does B35 bind?
Answer: Result: binds

Question: Does B36 bind?
Answer: Result: binds

Question: Does B37 bind?
Answer: Result: binds

Question: Does B38 bind?
Answer: Result: binds

Question: Does B39 bind?
Answer: Result: binds

Question: Does B40 bind?
Answer: Result: binds

Question: Does B41 bind?
Answer: Result: binds

Question: Does B42 bind?
Answer: Result: binds

Question: Does B43 bind?
Answer: Result: binds

Question: Does B44 bind?
Answer: Result: binds

Question: Does B45 bind?
Answer: Result: binds

Question: Does B46 bind?
Answer: Result: binds

Question: Does B47 bind?
Answer: Result: binds

Question: Does B48 bind?
Answer: Result: binds

Question: Does B49 bind?
Answer: Result: binds

Question: Does B50 bind?
Answer: Result: binds

Question: Does B51 bind?
Answer: Result: binds

Question: Does B52 bind?
Answer: Result: binds

Question: Does B53 bind?
Answer: Result: binds

Question: Does B54 bind?
Answer: Result: binds

Question: Does B55 bind?
Answer: Result: binds

Biological target: T1, Human Serum Albumin
Test: SPR (Biacore 2000), purified dAb over HSA (559 RU) on CM5 chip
Remark: another data set of the same source
From the text: as §1

Question: B3 was tested. Which “fold improvement in antigen affinity over DOM7h-14-10” value did it give?
Answer: The value was 2 fold.
